# B1: α-amino-β-carboxymuconate-ε-semialdehyde decarboxylase (ACMSD) from Pseudomonas fluorescens KU-7 (enzyme)
# chain: MKKPRIDMHSHFFPRISEQEAAKFDANHAPWLQVSAKGDTGSIMMGKNNFRPVYQALWDPAFRIEEMDAQGVDVQVTCATPVMFGYTWEANKAAQWAERMNDFALEFAAHNPQRIKVLAQVPLQDLDLACKEASRAVAAGHLGIQIGNHLGDKDLDDATLEAFLTHCANEDIPILVHPWDMMGGQRMKKWMLPWLVAMPAETQLAILSLILSGAFERIPKSLKICFGHGGGSFAFLLGRVDNAWRHRDIVREDCPRPPSEYVDRFFVDSAVFNPGALELLVSVMGEDRVMLGSDYPFPLGEQKIGGLVLSSNLGESAKDKIISGNASKFFNINV
# notes: ACMSD from Pseudomonas fluorescens KU-7, UniProt Q83V25; Zinc-dependent metalloenzyme; also called pfACMSD; wild-type ACMSD; source: stored in 25 mM HEPES pH 7.0
# How the values were obtained:
# O=C(O)CC(=O)C(=O)O = test system: T1, O=C(O)CC(=O)C(=O)O; test: purified protein; type: biochemical, Pseudomonas fluorescens; settings: HEPES pH 7.0, keto to enol form
# T1 construct: recombinant from pET16b-ACMSD, purified; Zn-dependent homodimer with Arg239* from adjacent subunit
# purified protein = substrate: O=C(O)CC(=O)C(=O)O; test: purified protein; settings: HEPES pH 7.0, Zn enzyme, keto to enol form
# [1] = target: the molecule itself; test: crystal structure; malonate-bound wild-type ACMSD, 10 mg/ml (270 uM); 50 mM malonate in place of Tacsimate, 0.1 M sodium citrate tribasic pH 5.6, 12% (w/v) PEG 3350; 2.21 A
Molecule,Km (O=C(O)CC(=O)C(=O)O) [µM],kcat (O=C(O)CC(=O)C(=O)O) [s⁻¹],kcat/Km (O=C(O)CC(=O)C(=O)O) [M⁻¹ s⁻¹],Km (purified protein) [µM],kcat (purified protein) [s⁻¹],kcat/Km (purified protein) [M⁻¹ s⁻¹],binding result [1]
ACMSD (pfACMSD) (Pseudomonas fluorescens; W194A),800 ± 80,4.18 ± 0.25,5200,–,–,–,–
ACMSD (pfACMSD) (Pseudomonas fluorescens; H228A),570 ± 130,2.98 ± 0.35,5200,–,–,–,–
B1,–,–,–,1120 ± 140,6.51,5800,binds
